# From patent US9051577 (GREENOVATION BIOTECH, dated 2015)
# What was measured:
# Experiment in all cases: cell-based or functional assay
# [1] = molecular target: Fcgamma-RIII receptor (CD16) on human PBMC effector cells, 158 genotype of the donor not stated (human) (UniProt P08637)
# [2] = molecular target: CD16 (FcgammaRIIIa) 158V/V, high affinity phenotype, on effector cells (PBMC/NK) of a human donor (human) (UniProt P08637)
# [3] = molecular target: CD16 (FcgammaRIIIa) 158F/F, low affinity phenotype, on effector cells (PBMC/NK) of a human donor (human) (UniProt P08637)
# [4] = molecular target: CD16 (FcgammaRIIIa) 158V/V, high affinity phenotype, on effector cells (PBMC/NK) of a human donor (human, UniProt P08637 17-254)
# [5] = molecular target: CD16 (FcgammaRIIIa) 158F/F, low affinity phenotype, on effector cells (PBMC/NK) of a human donor (human, UniProt P08637 17-254)
# [6] = molecular target: Fcgamma-RIII receptor (CD16) on human PBMC effector cells, 158 genotype of the donor not stated (human, UniProt P08637 17-254)
# Chain of Fcgamma-RIII receptor (CD16) on human PBMC effector cells, 158 genotype of the donor not stated (P08637 17-254): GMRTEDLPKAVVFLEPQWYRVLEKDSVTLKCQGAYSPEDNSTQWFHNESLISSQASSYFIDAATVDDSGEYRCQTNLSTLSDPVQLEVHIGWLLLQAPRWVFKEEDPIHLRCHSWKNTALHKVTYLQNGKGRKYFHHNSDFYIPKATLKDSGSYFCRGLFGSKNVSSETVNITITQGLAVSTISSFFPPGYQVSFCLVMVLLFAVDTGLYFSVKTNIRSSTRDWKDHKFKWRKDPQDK
# Chain of CD16 (FcgammaRIIIa) 158V/V, high affinity phenotype, on effector cells (PBMC/NK) of a human donor (P08637 17-254 F176V): as the sequence (P08637 17-254) above, with F160V counted along it
# Chain of CD16 (FcgammaRIIIa) 158V/V, high affinity phenotype, on effector cells (PBMC/NK) of a human donor (human) (P08637 17-254 F176V): as the sequence (P08637 17-254) above, with F160V counted along it
# Chain of Fcgamma-RIII receptor (CD16) on human PBMC effector cells, 158 genotype of the donor not stated (human) (P08637 17-254): as the sequence (P08637 17-254) above
# Chain of CD16 (FcgammaRIIIa) 158F/F, low affinity phenotype, on effector cells (PBMC/NK) of a human donor (human) (P08637 17-254): as above
# Chain of CD16 (FcgammaRIIIa) 158F/F, low affinity phenotype, on effector cells (PBMC/NK) of a human donor (P08637 17-254): as above
Molecule,EC50 of ADCC lysis of SK-BR-3 cells by human PBMC in 10% FCS [1],EC50 of ADCC lysis of SK-BR-3 cells by human PBMC in 40% NHS [1],"EC50 of ADCC lysis (51Cr release), OVCAR-3 target cells, CD16158 V/V effector cells [2]","EC50 of ADCC lysis (51Cr release), SK-BR-3 target cells, CD16158 V/V effector cells [2]","EC50 of ADCC lysis (51Cr release), TF-1 target cells, CD16158 V/V effector cells [2]","Enhancement (ADCC EC50 of IGN311 against IGN314), OVCAR-3, V/V effector cells [2]","Enhancement (ADCC EC50 of IGN311 against IGN314), SK-BR-3, V/V effector cells [2]","Enhancement (ADCC EC50 of IGN311 against IGN314), TF-1, V/V effector cells [2]","EC50 of ADCC lysis (51Cr release), OVCAR-3 target cells, CD16158 F/F effector cells [3]","Enhancement (ADCC EC50 of IGN311 against IGN314), OVCAR-3, F/F effector cells [3]","EC50 of ADCC lysis (51Cr release), OVCAR-3 target cells, CD16158 V/V effector cells [4]","EC50 of ADCC lysis (51Cr release), SK-BR-3 target cells, CD16158 V/V effector cells [4]","EC50 of ADCC lysis (51Cr release), TF-1 target cells, CD16158 V/V effector cells [4]","EC50 of ADCC lysis (51Cr release), OVCAR-3 target cells, CD16158 F/F effector cells [5]",EC50 of ADCC lysis of SK-BR-3 cells by human PBMC in 10% FCS [6],EC50 of ADCC lysis of SK-BR-3 cells by human PBMC in 40% NHS [6]
"IGN314, glyco-engineered IGN311 variant expressed in delta-xyl-t/delta-fuc-t double knockout moss (Physcomitrella patens) (antibody)",0.052 µg/mL,0.126 µg/mL,0.008 µg/mL,0.144 µg/mL,0.366 µg/mL,39 fold,7 fold,15 fold,0.025 µg/mL,40 fold,,,,,,
"IGN311, humanized monoclonal IgG anti-Lewis Y antibody (parental, expressed in SP 2.0 cells) (antibody, V domains shown, N-glycan at Asn297 almost completely core-fucosylated, with terminal galactosylation; C-terminal lysine of the heavy chain partly present (both SLSLSPG and SLSLSPGK detected)) VH: EVQLLESGGGLVQPGGSLRLSCAASGFTFSDYYMYWVRQAPEKRLEWVAYISNGGGSSHYVDSVKGRFTISRDNSKNTLYLQMNSLRAEDTALYHCARGMDYGAWFAYWGQGTLVTVSS VL: DIVMTQSPLSLPVTPGEPASISCRSSQSIVHSNGNTYLEWYLQKPGQSPQLLISKVSNRFSGVPDRFSGSGSGTDFTLKISRVEAEDVGVYYCFQGSHVPFTFGQGTKLEIK",,,,,,,,,,,0.315 µg/mL,1.04 µg/mL,5.32 µg/mL,0.993 µg/mL,0.301 µg/mL,1.56 µg/mL
